The text below walks through data of patent US20260365696A1, “INHIBITORS OF PTP1B / NCK1 INTERACTION AND METHODS OF MAKING AND USING SAME” (Radella Pharmaceuticals LLC, priority 2023, published 2026).

In one assay the test system is db/db mice. The assay is described as follows: db/db genetic mouse model of diabetes and obesity. It counts as in vivo. The source says:
Animals: All animals were housed and tested following European (Directive on the Protection of Animals used for Scientific Purposes, 2010/63/EU) and UK Home Office regulations. Experiments were approved by the University Ethics Board and carried out in accordance with the Animal (Scientific Procedures) Act 1986 and following ARRIVE guidelines. Db/db male mice (~4 weeks old) were purchased from Jackson, USA. All mice received standard mouse chow diet and had ad libitum access to food and water and were kept in a 12 h light/dark cycle.
Treatments: Mice were assigned and counterbalanced according to their body weights in to the following groups: control PBS (n=10); MD18 at 15 mg/kg (n=7), 30 mg/kg (n=8), or 45 mg/kg (n=7); or MD20 at 15 mg/kg (n=9), 30 mg/kg (n=10) or 45 mg/kg (n=7). MD18 and MD20 were administered once daily via subcutaneous (SC) injection for 41 days, whereas control mice received a daily SC injection of vehicle (PBS). MD18 and MD20 were kept in −20 °C and dissolved in sterile phosphate buffered saline (PBS).
Body weights and body mass composition: Body weights were recorded twice weekly during the study, and fat mass and lean mass composition was analysed using an EchoMRI scanner (EchoMedical Systems, Houston, TX, U.S.A.).
Metabolic measurements: All animals were five-hour fasted before obtaining basal glucose measurements and GTT, ITT, and corresponding treatments were administered 1 hour before glucose measurements. Tail blood glucose was measured using AlphaTRAK 2 glucose strips and glucometer (Abbot, UK), or blood was collected and glucose assay (AB65333, Abcam) was performed where readings were too high to be recorded via glucometer. Human Actrapid Insulin (NovaNordisk) at 1 IU/kg dose was administered during ITT.
Serum and liver assays: Trunk-derived blood was collected from 5 h-fasted mice into serum separator microtubes and kept at −80 °C. Serum was used for insulin (#EZRMI-13K, Merck) and leptin (#90030, Crystal Chem) analyses.
Statistical analyses: Data were reported as means±SEM and analysed using one- or two-way ANOVA with Bonferroni post hoc tests, as appropriate. GraphPad Prism (V8, GraphPad Software, Inc., San Diego, California, USA) was used for statistical analyses. P-values <0.05 were considered significant.

The target in a further assay is T1, SH3-2 domain of NCK1 (Homo sapiens, UniProt P16333).
T1 construct: To amplify the NCK1 SH3-2 domain, the primers; 10xHis tag with TEV site (vector pSF-OXB20-NH2-10HIS) (N, cleaved yes); made in house; host or cells: E. coli C43(DE3)
The assay is described as follows: Isothermal titration calorimetry (ITC) binding to NCK1 SH3-2 domain. A digest of the protocol: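 Measured at 25 °C, pH 8.0 (10 mM sodium buffer, sodium chloride), by calorimetric titration of 3-7.5 mM peptide into 0.125-0.3 mM recombinant NCK1 SH3-2 domain with His tag removed, using 20 injections. Affinities are means of three experiments, fitted with stoichiometry 0.8-1.2.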

Assay [1] concerns the target T2, NCK1 SH3-2 domain (human).
T2 chain: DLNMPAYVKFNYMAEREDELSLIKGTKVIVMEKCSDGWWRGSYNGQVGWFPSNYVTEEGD
The assay is described as follows: ITC.

Assay [2] deals with T2, NCK1 SH3-2 domain. Put plainly: ITC.
Assay [3] deals with T2, NCK1 SH3-2 domain. Put plainly: ITC.
Assay [4] addresses T2, NCK1 SH3-2 domain. The assay is described as follows: ITC.

Where two headings read alike, the source gives them in different places.

As to Ac-PPRPPKR-NH2 [MD18, Ac-PPRPPKR-NH2], in the assay with db/db mice (15 mg/kg SC daily, about 6 weeks, vs control), the leptin levels entry is reported as “A trend for decreased leptin levels”. For the same molecule, the “glucose clearance during GTT” value in the assay with db/db mice (15 mg/kg SC daily, week 4, vs control) is reported as “better glucose clearance at 15-minutes post-glucose injection”. Besides, in the assay on db/db mice (15 mg/kg and 30 mg/kg SC daily), the fat mass gain result is recorded as “inhibited fat mass gain”. Further, in the assay on db/db mice (15 mg/kg and 30 mg/kg SC daily, vs control), the body weight gain result was “significantly inhibited body weight gain”. In the assay on db/db mice (30 mg/kg SC daily, about 6 weeks, vs control), the fasted insulin levels entry was “A trend for lower fasted insulin levels”. Moreover, the basal glucose levels result in the assay on db/db mice (5-hour-fasted, SC daily, vs vehicle) is listed as “No significant differences”. Besides, the “efficacy with respect to inhibiting body weight, inhibiting fat mass gain, and improving glucose clearance during GTT” value with db/db mice (SC daily, compared to MD20) is recorded as “better efficacy as compared to MD20 treatment”. In addition, in the assay with db/db mice (SC daily, week 6, 1 IU/kg insulin, vs control), the “insulin tolerance test (ITT)” value was “did not detect any significant differences”. The Kd at SH3-2 domain of NCK1 (Peptide truncation analysis, ITC, 25 °C, pH 8.0) was ≤ 300 µM; on SH3-2 domain of NCK1 (ability to bind SH3-2 domain of NCK1, stated in text) it was < 193 µM.

With Ac-WKELSHEDLEPPPEHIPPPPRPPKR-NH2 [MH135], in the assay with NCK1 SH3-2 domain [1], the dissociation constant (Kd) was < 300 µM.

Consider Ac-PPPEHIPAPPRPPKR-NH2 [MSJ019], for which the Kd in the assay with NCK1 SH3-2 domain [2] is < 300 µM.

Take Ac-PPAEHIPPPPRPPKR-NH2 [MSJ014]: the Kd in the assay with NCK1 SH3-2 domain [2] was < 300 µM.

Consider Ac-PPPEHIPPPPRPPKRILEPHNGKCREFFPN-NH2 [MH137], for which, in the assay with NCK1 SH3-2 domain [1], the Kd is < 300 µM.

Turning to Ac-PPRQPKR-NH2 [MH131], the binding result with NCK1 SH3-2 domain [3] is recorded as “no binding”.

Regarding Ac-PPRPPKRK-NH2 [MH148], in the assay with NCK1 SH3-2 domain [4], the Kd was < 300 µM.

Regarding Ac-PPPEHIAPPPRPPKR-NH2 [MSJ018], the Kd with NCK1 SH3-2 domain [2] is < 300 µM.

Turning to Ac-PPPEHAPPPPRPPKR-NH2 [MSJ017], in the assay with NCK1 SH3-2 domain [2], the Kd is < 300 µM.

On to Ac-PPPEHIPPPPRPPKR-NH2 [MD17], for which, in the assay with NCK1 SH3-2 domain [2], the Kd is < 300 µM.

On to Ac-PPRPPKRA-NH2 [MH138], for which the Kd in the assay with NCK1 SH3-2 domain [4] is < 300 µM.

Ac-PPRPPKRG-NH2 [MH145]: the Kd in the assay with NCK1 SH3-2 domain [4] is < 300 µM.

Turning to Ac-PPRHPKR-NH2 [MH132], the binding result with NCK1 SH3-2 domain [3] is “no binding”.

Take Ac-PPRGPKR-NH2 [MH093]: the binding result in the assay with NCK1 SH3-2 domain [3] is listed as “no binding”.

Ac-PPRWPKR-NH2 [MH118]: the binding result with NCK1 SH3-2 domain [3] was “no binding”.

As to Ac-PPRPPKRIL-NH2 [MH064], in the assay with NCK1 SH3-2 domain [1], the Kd was < 300 µM.

In the case of Ac-PPPEHIPPPPRPPAR-NH2 [MH006], the Kd with NCK1 SH3-2 domain [2] was < 300 µM.

As for Ac-PPRPPKRW-NH2 [MH154], the Kd with NCK1 SH3-2 domain [4] was < 300 µM.

On to Ac-PAPEHIPPPPRPPKR-NH2 [MSJ013], for which the dissociation constant (Kd) with NCK1 SH3-2 domain [2] was < 300 µM.

Regarding Ac-PPPEHIPPPPRPPKRILE-NH2 [MH077], the Kd in the assay with NCK1 SH3-2 domain [1] was < 300 µM.

Regarding Ac-PPPEAIPPPPRPPKR-NH2 [MSJ016], in the assay with NCK1 SH3-2 domain [2], the Kd was < 300 µM.

Regarding Ac-PPPAHIPPPPRPPKR-NH2 [MSJ015], in the assay with NCK1 SH3-2 domain [2], the Kd is < 300 µM.

Ac-PPPEHIPPPPRAPKR-NH2 [MH004]: the Kd in the assay with NCK1 SH3-2 domain [2] was < 300 µM.

For the molecule Ac-PPPEHIPPPPAPPKR-NH2 [MH003], the Kd in the assay with NCK1 SH3-2 domain [2] was < 300 µM.

For the molecule Ac-PPPEHIPPAPRPPKR-NH2 [MH001], the Kd with NCK1 SH3-2 domain [2] was < 300 µM.

As for Ac-PPRNPKR-NH2 [MH127], the binding result with NCK1 SH3-2 domain [3] is listed as “no binding”.

As to Ac-PPPEHIPPPPRPPKA-NH2 [MH007], in the assay with NCK1 SH3-2 domain [2], the Kd was > 1000 µM.

Take Ac-HEDLEPPPEHIPPPPRPPKR-NH2 [MH090]: the Kd with NCK1 SH3-2 domain [1] is < 300 µM.

With Ac-PPRPPKRP-NH2 [MH151], in the assay with NCK1 SH3-2 domain [4], the Kd was < 600 µM.

Take Ac-PPRCPKR-NH2 [MH129]: the binding result in the assay with NCK1 SH3-2 domain [3] is given as “no binding”.

Take Ac-PPREPKR-NH2 [MH130]: the binding result with NCK1 SH3-2 domain [3] is listed as “no binding”.

Take Ac-PPRMPKR-NH2 [MH111]: the binding result with NCK1 SH3-2 domain [3] is recorded as “no binding”.

Turning to Ac-PPRPPKRILE-NH2 [MH065], the Kd in the assay with NCK1 SH3-2 domain [1] is < 300 µM.

On to Ac-PPRDPKR-NH2 [MH128], for which the binding result in the assay with NCK1 SH3-2 domain [3] is “no binding”.

For the molecule Ac-PPRPPKRM-NH2 [MH149], in the assay with NCK1 SH3-2 domain [4], the equilibrium dissociation constant (Kd) is < 300 µM.

As to Ac-PPRPPKRY-NH2 [MH155], the Kd with NCK1 SH3-2 domain [4] is < 300 µM.

On to Ac-PPPEHIPPPPRPAKR-NH2 [MH005], for which, in the assay with NCK1 SH3-2 domain [2], the Kd is > 1000 µM.

As for Ac-PPPEHIPPPPRPPKRILEPHNGKCR-NH2 [MH134], in the assay with NCK1 SH3-2 domain [1], the Kd is < 300 µM.

As to Ac-PPRPPKRF-NH2 [MH150], the Kd with NCK1 SH3-2 domain [4] is < 300 µM.

As for Ac-PPPEHIPPPARPPKR-NH2 [MH002], the Kd with NCK1 SH3-2 domain [2] was > 1000 µM.

As to Ac-PPRPPKRR-NH2 [MH139], the Kd in the assay with NCK1 SH3-2 domain [4] was < 300 µM.

Consider Ac-APPEHIPPPPRPPKR-NH2 [MSJ012], for which, in the assay with NCK1 SH3-2 domain [2], the Kd is < 300 µM.

On to Ac-PPRSPKR-NH2 [MH108], for which the binding result in the assay with NCK1 SH3-2 domain [3] was “no binding”.
